This data set deals with the molecule itself. In words: SEC; gel filtration of a single MBP fusion protein (self-association); HiLoad 200, 25 mM Bis-Tris pH 8.0, 150 mM NaCl. For orientation: In gel filtration, larger molecules generally elute earlier.

B1: MBP-PIF4^bHLH (bHLH DNA-binding domain of PIF4 fused to N-terminal maltose binding protein) (domain or fragment, Arabidopsis thaliana, UniProt Q8W2F3 248-317, looked up)
chain: QRSGSNRRSRAAEVHNLSERRRRDRINERMKALQELIPHCSKTDKASILDEAIDYLKSLQLQLQVMWMGS
notes: codon-optimised for E. coli; also called PIF4 bHLH domain; PIF4^bHLH WT; source: E. coli ArcticExpress, purified (Ni-NTA, size-exclusion chromatography); not shown: MBP, N-terminal, kept
For B1, the “stoichiometry N” value was determined as 4.

B2: MBP-PIF4^(bHLH (Mu3)) (PIF4 bHLH domain mutated in Interface 3 and Interface 4) (domain or fragment, Arabidopsis thaliana, UniProt Q8W2F3 248-317, looked up)
chain: QRSGSNRRSRAAEVHNLSERRRRDRINAAMAALAALIPHCSKTDKASILDEAIDYLKSLQLQLAVMAMGS
notes: source: E. coli ArcticExpress, purified (Ni-NTA, size-exclusion chromatography); not shown: MBP, N-terminal, kept
Consider B2, for which the “stoichiometry N” value turned out to be 2.

Broadly, the stoichiometry N is a count of units in the complex or per binding partner.

These data come from PMC9477738, “PIF4 enhances DNA binding of CDF2 to co-regulate target gene expression and promote Arabidopsis hypocotyl cell elongation” (Nature Plants, 2022).
